Assay [1] concerns the target T1, Human OX40R-IgG1 fusion protein (human, UniProt P43489 29-208).
T1 construct: range 1-208; Purified on protein G; also called OX40-IgG1; OX40-IgG; not shown: constant region of human IgG1 (hinge region, CH2 and CH3), amino acids 98-330 of SWISSPROT Acc; No. P01857
T1 sequence (looked up): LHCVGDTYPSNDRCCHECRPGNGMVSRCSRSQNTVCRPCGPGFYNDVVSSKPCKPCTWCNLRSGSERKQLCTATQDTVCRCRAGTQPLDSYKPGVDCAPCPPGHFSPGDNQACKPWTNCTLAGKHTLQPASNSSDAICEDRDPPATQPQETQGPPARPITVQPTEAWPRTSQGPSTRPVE
Briefly: Alphascreen saturation binding, 10 nM OX40R-IgG1, non-specific binding determined with 1 mM suramin. A general note: Bead proximity is the source of the signal in Alpha formats.

Assay [2] deals with T1, Human OX40R-IgG1 fusion protein. Kind of assay: Alphascreen binding assay, increasing OX40L-CD8 with 10 nM OX40R-IgG1; 10 nM OX40-IgG1.
Assay [3] shares this target. Kind of assay: Alphascreen binding assay, increasing OX40L-CD8 with 5 nM OX40R-IgG1; 5 nM OX40-IgG1.
Assay [4] has the same target. Kind of assay: Alphascreen competition against OX40L-CD8, IC50 transformed by the Cheng-Prusoff equation. Here is the method:
(§1) In the standard assay, OX40-IgG₁ and OX40L-CD8 were incubated together for 30 minutes, and then biotinylated anti-CD8 antibody (10 nM) was added. Following another incubation period of 30 minutes, streptavidin donor beads (20 μg/ml) and Protein A acceptor beads (20 μg/ml) were added to each individual well. The plate was counted 1 hour later using a Packard Fusion™ reader (Biosignal Packard) set at a read time of 1 second/well. Owing to the light sensitivity of the donor and acceptor beads, the experiments were carried out under […] and all incubation periods were performed at room temperature. The plate was read at an excitation wavelength of 680 nanometers combined with a shorter emission wavelength of 520-620 nanometers.
(§2) The ability of two known competitors of OX40L-OX40R interactions (untagged recombinant human soluble OX40L and suramin), which are themselves unable to generate an Alphascreen™ signal in this assay in absence of OX40L-CD8, to displace OX40L-CD8 from OX40R-IgG₁ was investigated. […] Increasing concentrations of OX40L (3 μM-0.1 pM) or suramin (1 mM -1 nM) were added to a reaction mixture also containing OX40-IgG₁ (10 nM) and OX40L-CD8 (40 nM). […] These values can be transformed by the Cheng-Prusoff equation (Cheng, Y C and Prusoff, W H, 1973) to Kᵢ values of 2.0 nM for OX40L and 26.3 μM for suramin. […]

The target is the same in assay [5]. Kind of assay: Alphascreen competition, soluble OX40L displacing OX40L-CD8 (40 nM) from OX40R-IgG1 (10 nM). On the procedure:
as §1, §2

Assay [6] has the same target. Kind of assay: fluorescence quenching spectroscopy of OX40R-IgG1 in solution. On the procedure: (§3) The fluorescence quenching assay was performed as previously described (Golabek A et al., 2000). OX40R-IgG₁ (35 micrograms) was dissolved in 500 microliters of PBS and the fluorescence spectum was recorded at 295-420 nanometers with an excitation wavelength of 290 nanometers using a spectrofluorimeter (Perkin Elmer LS50B) with the slits set at 5 nanometers. Fluorescence spectra of human OX40R-IgG₁ were then recorded in the presence of increasing concentrations (5-1000 nM) of P5 and P5-1 peptides after 15 minutes of equilibration. The fluorescence change at 336 nanometers was plotted versus peptide concentration and the resulting curves were analyzed by nonlinear regression fit with Prism® software (GraphPad).
(§4) The affinity of the peptides identified in Example 1 as inhibitor of OX40L-OX40R interaction was evaluated by fluorescence quenching spectroscopy, a technology allowing such measurements in solution, under native conditions and without beads or other supports. This method is based on monitoring the changes in the intrinsic fluorescence of a protein (OX40R-IgG₁) upon its binding with another protein (P5 or P5-1). […]

For assay [7] the target is unchanged. Briefly: Alphascreen-based competition assay against OX40L-CD8 on OX40R-IgG1; P5 (amino acids 94-124). On the procedure:
(§5) The soluble components (OX40-IgG₁, OX40L-CD8 and biotinylated anti-CD8 antibody) were mixed at the concentration described before for the competition assays with OX40L and suramin (FIG. 4), together with various concentrations of each peptide in a 5 microliter volume into a first addition step. The streptavidin donor and Protein A acceptor beads were added 30 minutes later. The plates were incubated for 2 hours in the dark, at room temperature and with shaking, before reading at a long excitation wavelength of 680 nm combined with a shorter emission wavelength of 520-620 nanometers, as described in Example 1.

The target is the same in assay [8]. Briefly: fluorescence quenching spectroscopy of OX40R-IgG1 intrinsic fluorescence, non-linear regression. On the procedure:
as §3, §4

The target is the same in assay [9]. Kind of assay: Alphascreen-based competition assay against OX40L-CD8 on OX40R-IgG1; P5-1 (amino acids 107-116). On the procedure: as §5

For the molecule “Human OX40L-murine CD8 (from UniProt P01731 28-196) (ligand)”, the Kd (usually a measure of binding affinity in units of concentration) in [1] came out at 20.7 nM. In addition, the results for the EC50 in assay [2] and in assay [3] were 7.9 nM and 7.7 nM, respectively.

B1: Recombinant human soluble OX40L (ligand)
chain: QVSHRYPRIQSIKVQFTEYKKEKGFILTSQKEDEIMKVQNNSVIINCDGFYLISLKGYFSQEVNISLHYQKDEEPLFQLKKVRSVNSLMVASLTYKDKVYLNVTTDNTSLDDFHVNGGELILIHQNPGEFCVL
notes: also called untagged recombinant human soluble OX40L; not shown: Glutathione-S-Transferase (GST) fusion partner
Consider B1, for which the inhibition constant Ki (as a rule, a dissociation constant, usually derived from enzyme kinetics or from competition with a known ligand) in assay [4] came to 2 nM. Moreover, the IC50 (commonly the midpoint of a concentration-inhibition curve) in assay [5] amounted to 5.9 nM.

B2: Peptide P5 (amino acids 94-124 of human OX40L) (peptide)
peptide: IINCDGFYLISLKGYFSQEVNISLHYQKDEE
notes: Synthetic peptide (Epytop), purity 85-97%
Take B2: the Kd in assay [6] is about 7.9 nM; in assay [7] it was about 10000 nM; in assay [8] it was 7.96 nM.
In the case of GYFSQEVNIS (Synthetic peptide (Epytop)) [Peptide P5-1 (amino acids 107-116 of human OX40L)], the values for the Kd in [9], in assay [6] and in [8] were about 62000 nM, about 24.6 nM and 24.6 nM, respectively.

Values taken from patent US20070009964A1 (MERCK SERONO, published 2007).
